B1: Nb17 (VHH)
VHH: HVQLVESGGGLVQAGGSLRLSCAASGSIFSSNAMSWYRQAPGKQRELVASITSGGNADYADSVKGRFTISRDKNTVYPEMSSLKPADTAVYYCHAVGQEASAYAPRAYWGQGTQVTVSS
B2: Nb21 (VHH)
VHH: QVQLVESGGGLVQAGGSLRLSCAVSGLGAHRVGWFRRAPGKEREFVAAIGANGGNTNYLDSVKGRFTISRDNAKNTIYLQMNSLKPQDTAVYYCAARDIETAEYTYWGQGTQVTVSS

Assays:
Conditions in all cases: remark: other sources report otherwise
[1] = target: receptor-binding domain (RBD) of the SARS-CoV-2 spike (S) glycoprotein (SARS-CoV-2), P0DTC2
[2] = target: T1, SARS-CoV-2 spike receptor-binding domain (RBD) (SARS-CoV-2), P0DTC2; assay: indirect ELISA, RBD coated on plate, 4PL fit
[3] = target: T1, SARS-CoV-2 spike receptor-binding …; assay: SPR (Biacore 3000), RBD immobilised, Nb as analyte, 1:1 Langmuir fit

| Binder | Buried surface area [1] [Å^2] | ELISA affinity [2] [nM] | Kd [3] [pM] | koff [3] [s⁻¹] | kon [3] [M⁻¹ s⁻¹] |
| --- | --- | --- | --- | --- | --- |
| B1 | 921 | 0.45 | – | – | – |
| B2 | 850 | 0.3 | < 1 | < 1e-06 | 3.79e+06 |

Source: patent US20240043505A1
